According to patent US20190185537A1 (AstraZeneca / MedImmune, published 2019):
Numbered stars: 1 amine (or outer) side, 2 acyl side, 3 side chain; on linkers, the order of the positions; unused ones are H or OH. Side chains are listed from the residue outwards. Ends that are not written are not given here. * marks the point of attachment. γGlu = O=C(O)[C@H](CCC(=O)[*:2])N[*:1]; Palmitoyl = CCCCCCCCCCCCCCCC(=O)*; Ahx = NCCCCCC(=O)O; βAla = NCCC(=O)O

T1: human glucose-dependent insulinotropic peptide (gastric inhibitory polypeptide) receptor (human) (UniProt P48546)
T1 sequence (looked up): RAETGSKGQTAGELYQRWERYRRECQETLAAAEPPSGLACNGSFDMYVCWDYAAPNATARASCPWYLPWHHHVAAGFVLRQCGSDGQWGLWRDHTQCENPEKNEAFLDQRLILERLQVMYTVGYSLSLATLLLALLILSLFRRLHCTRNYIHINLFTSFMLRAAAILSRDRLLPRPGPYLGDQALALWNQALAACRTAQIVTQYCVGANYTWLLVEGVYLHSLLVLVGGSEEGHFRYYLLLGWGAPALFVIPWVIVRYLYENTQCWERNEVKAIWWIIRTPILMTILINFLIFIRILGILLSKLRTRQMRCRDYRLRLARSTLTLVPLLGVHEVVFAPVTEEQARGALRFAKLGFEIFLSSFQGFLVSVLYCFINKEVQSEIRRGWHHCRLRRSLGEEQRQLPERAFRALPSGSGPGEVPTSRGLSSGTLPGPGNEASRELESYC


Tests used:
Experiment in all cases: cell-based or functional assay
human glucagon receptor = human glucagon receptor (human, UniProt P47871 26-477)
Chain of human glucagon receptor (P47871 26-477): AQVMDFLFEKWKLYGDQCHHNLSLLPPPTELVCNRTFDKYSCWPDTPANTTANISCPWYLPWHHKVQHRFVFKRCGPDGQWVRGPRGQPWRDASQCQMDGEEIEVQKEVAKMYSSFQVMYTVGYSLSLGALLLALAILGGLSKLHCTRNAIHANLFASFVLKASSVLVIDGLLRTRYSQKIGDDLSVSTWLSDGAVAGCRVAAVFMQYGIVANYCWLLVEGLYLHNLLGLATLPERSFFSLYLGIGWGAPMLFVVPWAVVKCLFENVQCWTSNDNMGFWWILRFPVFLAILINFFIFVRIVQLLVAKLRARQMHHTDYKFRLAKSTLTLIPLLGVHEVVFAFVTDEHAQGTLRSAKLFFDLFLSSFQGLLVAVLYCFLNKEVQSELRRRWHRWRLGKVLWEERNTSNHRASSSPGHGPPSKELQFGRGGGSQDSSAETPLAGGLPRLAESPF

[1] = molecular target: T1, human glucose-dependent insulinotropic peptide (gastric inhibitory polypeptide) receptor (human)
human GLP-1 receptor = human GLP-1 receptor (human, UniProt P43220 24-463)
Chain of human GLP-1 receptor (P43220 24-463): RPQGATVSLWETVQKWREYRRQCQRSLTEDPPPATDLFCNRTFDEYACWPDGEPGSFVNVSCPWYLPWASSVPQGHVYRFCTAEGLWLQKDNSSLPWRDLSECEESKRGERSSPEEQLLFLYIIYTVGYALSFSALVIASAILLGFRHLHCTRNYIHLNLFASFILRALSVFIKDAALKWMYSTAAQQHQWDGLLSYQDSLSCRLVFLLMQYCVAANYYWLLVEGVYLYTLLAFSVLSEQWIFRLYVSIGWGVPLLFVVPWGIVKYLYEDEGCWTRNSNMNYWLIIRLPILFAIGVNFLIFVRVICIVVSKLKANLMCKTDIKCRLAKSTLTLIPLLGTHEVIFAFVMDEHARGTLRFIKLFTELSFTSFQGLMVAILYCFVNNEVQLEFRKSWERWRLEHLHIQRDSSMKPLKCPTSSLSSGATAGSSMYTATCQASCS

Binder | cAMP EC50 (assay 1) (human glucagon receptor) | cAMP EC50 (assay 1) [1] | cAMP EC50 (assay 1) (human GLP-1 receptor)
HSQGTFTSDYSEYLDSK([Ahx-Palmitoyl])RARDFVAWLEAGG-NH2 (N-terminus assumed; SMILES CCCCCCCCCCCCCCCC(=O)NCCCCCC(=O)NCCCC[C@H](NC(=O)[C@H](CO)NC(=O)[C@H](CC(=O)O)NC(=O)[C@H](CC(C)C)NC(=O)[C@H](Cc1ccc(O)cc1)NC(=O)[C@H](CCC(=O)O)NC(=O)[C@H](CO)NC(=O)[C@H](Cc1ccc(O)cc1)NC(=O)[C@H](CC(=O)O)NC(=O)[C@H](CO)NC(=O)[C@@H](NC(=O)[C@H](Cc1ccccc1)NC(=O)[C@@H](NC(=O)CNC(=O)[C@H](CCC(N)=O)NC(=O)[C@H](CO)NC(=O)[C@@H](N)Cc1c[nH]cn1)[C@@H](C)O)[C@@H](C)O)C(=O)N[C@@H](CCCNC(=N)N)C(=O)N[C@@H](C)C(=O)N[C@@H](CCCNC(=N)N)C(=O)N[C@@H](CC(=O)O)C(=O)N[C@@H](Cc1ccccc1)C(=O)N[C@H](C(=O)N[C@@H](C)C(=O)N[C@@H](Cc1c[nH]c2ccccc12)C(=O)N[C@@H](CC(C)C)C(=O)N[C@@H](CCC(=O)O)C(=O)N[C@@H](C)C(=O)NCC(=O)NCC(N)=O)C(C)C) [g838] | 0.00568 nM | 84.3 nM | 0.0237 nM
HSQGTFTSDYSEYLDSK([γGlu-Palmitoyl])RARDFVAWLEAGG-NH2 (N-terminus assumed; SMILES CCCCCCCCCCCCCCCC(=O)N[C@@H](CCC(=O)NCCCC[C@H](NC(=O)[C@H](CO)NC(=O)[C@H](CC(=O)O)NC(=O)[C@H](CC(C)C)NC(=O)[C@H](Cc1ccc(O)cc1)NC(=O)[C@H](CCC(=O)O)NC(=O)[C@H](CO)NC(=O)[C@H](Cc1ccc(O)cc1)NC(=O)[C@H](CC(=O)O)NC(=O)[C@H](CO)NC(=O)[C@@H](NC(=O)[C@H](Cc1ccccc1)NC(=O)[C@@H](NC(=O)CNC(=O)[C@H](CCC(N)=O)NC(=O)[C@H](CO)NC(=O)[C@@H](N)Cc1c[nH]cn1)[C@@H](C)O)[C@@H](C)O)C(=O)N[C@@H](CCCNC(=N)N)C(=O)N[C@@H](C)C(=O)N[C@@H](CCCNC(=N)N)C(=O)N[C@@H](CC(=O)O)C(=O)N[C@@H](Cc1ccccc1)C(=O)N[C@H](C(=O)N[C@@H](C)C(=O)N[C@@H](Cc1c[nH]c2ccccc12)C(=O)N[C@@H](CC(C)C)C(=O)N[C@@H](CCC(=O)O)C(=O)N[C@@H](C)C(=O)NCC(=O)NCC(N)=O)C(C)C)C(=O)O) [g837] | 0.213 nM | 114 nM | 0.467 nM
HSEGTFTSDYSEYLDSK([βAla-Palmitoyl])RARDFVAWLEAGG-NH2 (N-terminus assumed; SMILES CCCCCCCCCCCCCCCC(=O)NCCC(=O)NCCCC[C@H](NC(=O)[C@H](CO)NC(=O)[C@H](CC(=O)O)NC(=O)[C@H](CC(C)C)NC(=O)[C@H](Cc1ccc(O)cc1)NC(=O)[C@H](CCC(=O)O)NC(=O)[C@H](CO)NC(=O)[C@H](Cc1ccc(O)cc1)NC(=O)[C@H](CC(=O)O)NC(=O)[C@H](CO)NC(=O)[C@@H](NC(=O)[C@H](Cc1ccccc1)NC(=O)[C@@H](NC(=O)CNC(=O)[C@H](CCC(=O)O)NC(=O)[C@H](CO)NC(=O)[C@@H](N)Cc1c[nH]cn1)[C@@H](C)O)[C@@H](C)O)C(=O)N[C@@H](CCCNC(=N)N)C(=O)N[C@@H](C)C(=O)N[C@@H](CCCNC(=N)N)C(=O)N[C@@H](CC(=O)O)C(=O)N[C@@H](Cc1ccccc1)C(=O)N[C@H](C(=O)N[C@@H](C)C(=O)N[C@@H](Cc1c[nH]c2ccccc12)C(=O)N[C@@H](CC(C)C)C(=O)N[C@@H](CCC(=O)O)C(=O)N[C@@H](C)C(=O)NCC(=O)NCC(N)=O)C(C)C) [g734] | 82.8 nM | 1170 nM | 0.0695 nM
HSQGTFTSDYSKYLDSRRAQDFVQWLEAGGK([γGlu-Palmitoyl])-NH2 (N-terminus assumed; SMILES CCCCCCCCCCCCCCCC(=O)N[C@@H](CCC(=O)NCCCC[C@H](NC(=O)CNC(=O)CNC(=O)[C@H](C)NC(=O)[C@H](CCC(=O)O)NC(=O)[C@H](CC(C)C)NC(=O)[C@H](Cc1c[nH]c2ccccc12)NC(=O)[C@H](CCC(N)=O)NC(=O)[C@@H](NC(=O)[C@H](Cc1ccccc1)NC(=O)[C@H](CC(=O)O)NC(=O)[C@H](CCC(N)=O)NC(=O)[C@H](C)NC(=O)[C@H](CCCNC(=N)N)NC(=O)[C@H](CCCNC(=N)N)NC(=O)[C@H](CO)NC(=O)[C@H](CC(=O)O)NC(=O)[C@H](CC(C)C)NC(=O)[C@H](Cc1ccc(O)cc1)NC(=O)[C@H](CCCCN)NC(=O)[C@H](CO)NC(=O)[C@H](Cc1ccc(O)cc1)NC(=O)[C@H](CC(=O)O)NC(=O)[C@H](CO)NC(=O)[C@@H](NC(=O)[C@H](Cc1ccccc1)NC(=O)[C@@H](NC(=O)CNC(=O)[C@H](CCC(N)=O)NC(=O)[C@H](CO)NC(=O)[C@@H](N)Cc1c[nH]cn1)[C@@H](C)O)[C@@H](C)O)C(C)C)C(N)=O)C(=O)O) [g747] | 0.0942 nM | 1040 nM | 3.16 nM
HSEGTFTSDYSKYLDSK([γGlu-Palmitoyl])RAQDFVQWLEAGG-NH2 (N-terminus assumed; SMILES CCCCCCCCCCCCCCCC(=O)N[C@@H](CCC(=O)NCCCC[C@H](NC(=O)[C@H](CO)NC(=O)[C@H](CC(=O)O)NC(=O)[C@H](CC(C)C)NC(=O)[C@H](Cc1ccc(O)cc1)NC(=O)[C@H](CCCCN)NC(=O)[C@H](CO)NC(=O)[C@H](Cc1ccc(O)cc1)NC(=O)[C@H](CC(=O)O)NC(=O)[C@H](CO)NC(=O)[C@@H](NC(=O)[C@H](Cc1ccccc1)NC(=O)[C@@H](NC(=O)CNC(=O)[C@H](CCC(=O)O)NC(=O)[C@H](CO)NC(=O)[C@@H](N)Cc1c[nH]cn1)[C@@H](C)O)[C@@H](C)O)C(=O)N[C@@H](CCCNC(=N)N)C(=O)N[C@@H](C)C(=O)N[C@@H](CCC(N)=O)C(=O)N[C@@H](CC(=O)O)C(=O)N[C@@H](Cc1ccccc1)C(=O)N[C@H](C(=O)N[C@@H](CCC(N)=O)C(=O)N[C@@H](Cc1c[nH]c2ccccc12)C(=O)N[C@@H](CC(C)C)C(=O)N[C@@H](CCC(=O)O)C(=O)N[C@@H](C)C(=O)NCC(=O)NCC(N)=O)C(C)C)C(=O)O) [g513] | 0.723 nM | 298 nM | 0.175 nM

Results, then the binder that gave them:

cAMP EC50 (assay 1) (human glucagon receptor) | cAMP EC50 (assay 1) [1] | cAMP EC50 (assay 1) (human GLP-1 receptor) | Binder
0.0606 nM | 407 nM | 0.098 nM | HGQGTFTSDYSKYLDSK([γGlu-Palmitoyl])RAQDFVQWLEAGG-NH2 (N-terminus assumed; SMILES CCCCCCCCCCCCCCCC(=O)N[C@@H](CCC(=O)NCCCC[C@H](NC(=O)[C@H](CO)NC(=O)[C@H](CC(=O)O)NC(=O)[C@H](CC(C)C)NC(=O)[C@H](Cc1ccc(O)cc1)NC(=O)[C@H](CCCCN)NC(=O)[C@H](CO)NC(=O)[C@H](Cc1ccc(O)cc1)NC(=O)[C@H](CC(=O)O)NC(=O)[C@H](CO)NC(=O)[C@@H](NC(=O)[C@H](Cc1ccccc1)NC(=O)[C@@H](NC(=O)CNC(=O)[C@H](CCC(N)=O)NC(=O)CNC(=O)[C@@H](N)Cc1c[nH]cn1)[C@@H](C)O)[C@@H](C)O)C(=O)N[C@@H](CCCNC(=N)N)C(=O)N[C@@H](C)C(=O)N[C@@H](CCC(N)=O)C(=O)N[C@@H](CC(=O)O)C(=O)N[C@@H](Cc1ccccc1)C(=O)N[C@H](C(=O)N[C@@H](CCC(N)=O)C(=O)N[C@@H](Cc1c[nH]c2ccccc12)C(=O)N[C@@H](CC(C)C)C(=O)N[C@@H](CCC(=O)O)C(=O)N[C@@H](C)C(=O)NCC(=O)NCC(N)=O)C(C)C)C(=O)O) [g512]
0.156 nM | 1430 nM | 0.0254 nM | HSQGTFTSDYSKYLDSRK([γGlu-Palmitoyl])ARDFVAWLEAGG-NH2 (N-terminus assumed; SMILES CCCCCCCCCCCCCCCC(=O)N[C@@H](CCC(=O)NCCCC[C@H](NC(=O)[C@H](CCCNC(=N)N)NC(=O)[C@H](CO)NC(=O)[C@H](CC(=O)O)NC(=O)[C@H](CC(C)C)NC(=O)[C@H](Cc1ccc(O)cc1)NC(=O)[C@H](CCCCN)NC(=O)[C@H](CO)NC(=O)[C@H](Cc1ccc(O)cc1)NC(=O)[C@H](CC(=O)O)NC(=O)[C@H](CO)NC(=O)[C@@H](NC(=O)[C@H](Cc1ccccc1)NC(=O)[C@@H](NC(=O)CNC(=O)[C@H](CCC(N)=O)NC(=O)[C@H](CO)NC(=O)[C@@H](N)Cc1c[nH]cn1)[C@@H](C)O)[C@@H](C)O)C(=O)N[C@@H](C)C(=O)N[C@@H](CCCNC(=N)N)C(=O)N[C@@H](CC(=O)O)C(=O)N[C@@H](Cc1ccccc1)C(=O)N[C@H](C(=O)N[C@@H](C)C(=O)N[C@@H](Cc1c[nH]c2ccccc12)C(=O)N[C@@H](CC(C)C)C(=O)N[C@@H](CCC(=O)O)C(=O)N[C@@H](C)C(=O)NCC(=O)NCC(N)=O)C(C)C)C(=O)O) [g782]
